Measured values from patent US20260151494A1.

Target: human serum albumin (human) (UniProt P02768)
Assay: primary ELISA screen, HSA negative control

Chain of human serum albumin (human) (P02768 25-609 limits assumed): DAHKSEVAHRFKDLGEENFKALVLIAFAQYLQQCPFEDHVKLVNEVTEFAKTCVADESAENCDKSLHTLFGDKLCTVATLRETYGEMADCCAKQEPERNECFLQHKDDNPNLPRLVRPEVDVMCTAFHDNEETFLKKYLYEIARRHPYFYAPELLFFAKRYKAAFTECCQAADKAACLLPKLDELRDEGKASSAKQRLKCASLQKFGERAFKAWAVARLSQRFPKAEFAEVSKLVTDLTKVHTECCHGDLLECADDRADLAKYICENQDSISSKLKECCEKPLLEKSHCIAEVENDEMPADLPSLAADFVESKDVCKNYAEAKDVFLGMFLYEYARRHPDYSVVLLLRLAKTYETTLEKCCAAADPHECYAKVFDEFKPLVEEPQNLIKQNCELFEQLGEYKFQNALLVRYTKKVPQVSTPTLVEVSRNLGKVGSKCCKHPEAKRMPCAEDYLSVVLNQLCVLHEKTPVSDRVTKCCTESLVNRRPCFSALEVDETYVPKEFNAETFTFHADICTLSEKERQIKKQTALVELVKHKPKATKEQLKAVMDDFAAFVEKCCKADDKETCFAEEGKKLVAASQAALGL

RLU [RLU]	Binder
17200	CD71-binding FN3 domain of SEQ ID NO: 337 (designed binder, not shown: small tags and cut ends) MSLPAPKNLVVSRVTEDSARLSWTAPDAAFDSFFIGYLEPQPPGEAIHLYVPGSERSYDLTGLKPGTEYNVTIQGVKGGFPSIPLIASFTT
30400	CD71-binding FN3 domain of SEQ ID NO: 343 (designed binder, not shown: small tags and cut ends) MSLPAPKNLVVSRVTEDSARLSWTAPDAAFDSFFIGYLEPQPPGEAIALWVPGSERSYDLTGLKPGTEYNVTIQGVKGGFPSEPLVATFTT
425000	CD71-binding FN3 domain of SEQ ID NO: 342 (designed binder, not shown: small tags and cut ends) MSLPAPKNLVVSRVTEDSARLSWTAPDAAFDSFFIGYLEPQPPGEAIVLTVPGSERSYDLTGLKPGTEYNVTIQGVKGGFPSEPLIANFTT
58000	CD71-binding FN3 domain of SEQ ID NO: 341 (designed binder, not shown: small tags and cut ends) MSLPAPKNLVVSRVTEDSARLSWTAPDAAFDSFFIGYLEPQPPGEAIELYVPGSERSYDLTGLKPGTEYNVTIQGVKGGFPSLPLVAIFTT
40200	CD71-binding FN3 domain of SEQ ID NO: 338 (designed binder, not shown: small tags and cut ends) MSLPAPKNLVVSRVTEDSARLSWTAPDAAFDSFEIGYFENLYLGEAIVLTVPGSERSYDLTGLKPGTEYCVYICGVKGGRDSMPLSAIFTT
7050	CD71-binding FN3 domain of SEQ ID NO: 339 (designed binder, not shown: small tags and cut ends) MSLPAPKNLVVSRVTEDSARLSWTAPDAAFDSFEIGYWEMSYYGEAIVLTVPGSERSYDLTGLKPGTEYGVSIGGVKGGRWSLPLSAIFTT
36900	CD71-binding FN3 domain of SEQ ID NO: 344 (designed binder, not shown: small tags and cut ends) MSLPAPKNLFVSRVTEDSARLSWTAPDAAFDSFEIGYWENAYKGEAIVLTVPGSERSYDLTGLKPGTEYWVQIGGVKGGNWSAPLSAIFTT
23600	CD71-binding FN3 domain of SEQ ID NO: 345 (designed binder, not shown: small tags and cut ends) MSLPAPKNLVVSRVTEDSAHLSWTAPDAAFDSFEIGYFENDYFGEAIVLTVPGSERSYDLTGLKPGTEYVVFIGGVKGGKWSAPLSAIFTT
28300	CD71-binding FN3 domain of SEQ ID NO: 340 (designed binder, not shown: small tags and cut ends) MSLPAPKNLVVSRVTEDSSRLSWTAPDAAFDSFEIGYFENLYLGEAIVLTVPGSERSYDLTGLKPGTEYWVQIGGVKGGNWSAPLSAIFTT
